Assay results from the supplement of paper PMC9732359.
± gives the uncertainty stated by the source.

Experiment: protein stability index of a GFP-peptide fusion (yeast GPS) (PSI 1-4); higher = more stable; sorted into four equal gates, so the index is relative within each strain
In short: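 Mid-log yeast cultures in leucine-free medium, carrying a pooled plasmid library, were sorted into four equal gates by their GFP/Cherry fluorescence ratio. Each plasmid expressed Cherry along with GFP fused upstream of a tiled 17-residue yeast protein peptide. Plasmids recovered from each gate were PCR-amplified and Illumina-sequenced, with reads assigned to strains by barcodes. The protein stability index was obtained by summing each gate's read frequency weighted by its gate number.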

Sequence	protein stability index (doa10∆)	protein stability index (pdr5∆)	protein stability index (san1∆)	protein stability index (ubr1∆)
VAQQQVQRQIEQQKGQQ [SNF5]	3.42 ± 0.079	3.14 ± 0.1	3.46 ± 0.075	3.19 ± 0.089
FTQQELQKQMGIGSLTD [RPC34]	2.22 ± 0.088	2.39 ± 0.11	2.33 ± 0.17	2.48 ± 0.11
LIDSLENHLLVMKQVET [PRP28]	2.49 ± 0.11	2.19 ± 0.073	1.69 ± 0.19	2.06 ± 0.063
DDYVLRIFAIAFTRKQA [RPS1A]	1.77 ± 0.019	1.888 ± 0.017	1.94 ± 0.027	2.156 ± 0.015
PSVIHSSVEMLLDVVKG [YDL116W/NUP84]	2.56 ± 0.085	1.85 ± 0.11	2.2 ± 0.057	1.42 ± 0.038
CKLTLDINVELFPVAAQ [RPB8]	2.57 ± 0.063	2.24 ± 0.079	2.43 ± 0.078	2.96 ± 0.05
PVMADLNGGLQFVPELK [FAS2]	1.78 ± 0.069	2.19 ± 0.076	2.07 ± 0.077	2.01 ± 0.056
EFIRCGCLIKNLPRTKA [RMP1]	2.17 ± 0.087	2.82 ± 0.1	2.3 ± 0.11	2.53 ± 0.077
TSSTPSPIKNGSCTRQL [YOR098C/NUP1]	3.26 ± 0.064	3.02 ± 0.045	2.68 ± 0.046	3.09 ± 0.049
LALSGTSASNTSMNGVH [SNF5]	2.48 ± 0.073	2.73 ± 0.16		3.05 ± 0.14
GATSKPAFSFGAKPEEK [YJL041W/NSP1]	3.05 ± 0.098	3.4 ± 0.092	3.31 ± 0.074	3.11 ± 0.073
TSSVILGSQSKSDEGGS [YOR098C/NUP1]		2.23 ± 0.12		1.81 ± 0.15
GVMLWKEFDETIFNLPK [FAS1]	1.75 ± 0.073	1.56 ± 0.12	1.15 ± 0.21	2.81 ± 0.2
YQELIKNGALVSNILSA [YJL039C/NUP192]	1.76 ± 0.072	2.2 ± 0.057	1.82 ± 0.075	2.09 ± 0.062
KFQKLLQNSERDVELSS [SMC4]	2.82 ± 0.065	3.18 ± 0.048	2.94 ± 0.041	3.05 ± 0.052
FLNNGEVDSASDFISKL [RPN3]	2.57 ± 0.29	3.33 ± 0.21	2.8 ± 0.27	3.29 ± 0.13
SDEAIIPVNKRRGAHGS [SIR3]	3.03 ± 0.15	3.13 ± 0.13	3.04 ± 0.13	2.93 ± 0.18
PLSVATELMNRSPLVTP [SRP72]	2.14 ± 0.068	2.48 ± 0.069	2.4 ± 0.06	2.03 ± 0.06
TSDGALSVMCGCGTVKR [RPR2]	2.43 ± 0.13	2.67 ± 0.1	1.93 ± 0.14	1.78 ± 0.13
EDDDNEQHEEKAAEGEE [QCR6]	3.06 ± 0.083	2.95 ± 0.12	2.95 ± 0.24	3.2 ± 0.072
SAVVSSNASRRKLINYT [RPN4]	2.77 ± 0.11	2.53 ± 0.14	2.55 ± 0.069	3.26 ± 0.14
NNNSNNIMSASGGLFGN [YGL172W/NUP49]	2.97 ± 0.041	3.02 ± 0.041	3.13 ± 0.051	3.2 ± 0.035
ATLNYIDKNHGFERLTV [SRB7]		3.28 ± 0.15		3.49 ± 0.13
TFVHVTDLSGKETIARV [RPS14A]	2.89 ± 0.069	2.82 ± 0.073	2.84 ± 0.05	2.4 ± 0.055
VDFIKHSLSQAIKWDGS [PRE3]	1.75 ± 0.15	2.29 ± 0.12	1.61 ± 0.26	2.48 ± 0.2
KRNKLLTIFDSVDESAR [YJL039C/NUP192]	2.26 ± 0.07	2.37 ± 0.072	2.32 ± 0.061	2.36 ± 0.066
DKLWTLIPEDKRDQYLK [RPL28]	3.32 ± 0.19	2.88 ± 0.22	3.13 ± 0.07	3.18 ± 0.24

Sequence	protein stability index (doa10∆)	protein stability index (pdr5∆)	protein stability index (san1∆)	protein stability index (ubr1∆)
IQPKNSDDQQEAVELVI [YML103C/NUP188]	2.85 ± 0.19		3.4 ± 0.13	3.34 ± 0.12
PSNESCSPWSLQISDIP [SRB5]	2.87 ± 0.058	2.78 ± 0.047	2.97 ± 0.039	2.91 ± 0.032
ARIHAQNYLKTYNEDIP [PRE9]	2.28 ± 0.051	1.99 ± 0.079	2.75 ± 0.085	2.05 ± 0.061
LEKKFPDRHVIFLAERR [RPS7B]	2.77 ± 0.066	2.87 ± 0.058	2.91 ± 0.046	3.1 ± 0.042
PPNNARRTYNTLEDKFL [ISW2]	2.09 ± 0.04	2.02 ± 0.045	1.6 ± 0.11	1.95 ± 0.035
EDTELYQELIKNGALVS [YJL039C/NUP192]		2.77 ± 0.087	3.21 ± 0.11	2.57 ± 0.069
IKEDIKKQPSILVGGTL [SNF2]	1.93 ± 0.084	2.15 ± 0.12	2.92 ± 0.12	3.27 ± 0.14
AHFWKPVLNLDKLWTLI [RPL28]	2.22 ± 0.045	2.3 ± 0.047	2.09 ± 0.071	1.65 ± 0.032
NYGEKEERKRWAMQGIS [PCI8]	2.92 ± 0.14	2.52 ± 0.24		
LSETNGLHKFVKGDLLQ [PRE10]		3.28 ± 0.23		3.48 ± 0.11
GNKNQFEPSISRSNFQG [LRP1]	2.76 ± 0.13	2.7 ± 0.16	2.74 ± 0.073	2.34 ± 0.21
ATVEECVKLTVRSLLEV [PRE6]	1.53 ± 0.052	1.72 ± 0.064	1.88 ± 0.12	1.47 ± 0.055
MKYDIFAKFIHHIHHFE [IRR1]	2.03 ± 0.079	2.54 ± 0.055	2.46 ± 0.065	2.74 ± 0.05
QDMEAAKEVYKIHQQLL [GAL11]	3.41 ± 0.22	3.41 ± 0.13	3.5 ± 0.11	3.41 ± 0.12
HLVSNELEQLSSEALEA [RPL10]	1.21 ± 0.053	1.39 ± 0.042	1.3 ± 0.14	1.39 ± 0.031
KVIPYSTFRLNLSVTSP [RPO21]	1.67 ± 0.065	1.53 ± 0.075	1.14 ± 0.24	1.97 ± 0.13
VNGVPLRRVNARYVIAT [RPL6A]	1.61 ± 0.095	1.9 ± 0.066	1.37 ± 0.11	1.23 ± 0.05
IKFGGLIIQKIPSLQNN [ECM29]	1.83 ± 0.066	1.72 ± 0.066	1.5 ± 0.064	1.83 ± 0.062
LQMDYKDDMKVDDAIEL [PRE9]	3.21 ± 0.14	3.42 ± 0.081	3.21 ± 0.067	3.51 ± 0.071
SKVQFDAKTSYPNEVLK [REC8]	2.77 ± 0.05	3.08 ± 0.072	3.06 ± 0.059	3.04 ± 0.067
DNNITEMLEENFPEASK [YCG1]	2.48 ± 0.097	2.22 ± 0.11	2.59 ± 0.09	2.74 ± 0.052
SSRFKHRQEIFKDSPMD [GAL11]	2.71 ± 0.078	3.11 ± 0.066	3.03 ± 0.059	3.01 ± 0.076
NNSANNNAHSSDLGTVV [YMR153W/NUP53]	3.03 ± 0.15	2.62 ± 0.1	2.7 ± 0.091	2.28 ± 0.044
LKIFLYLESLFAKQVDV [IRR1]	2.51 ± 0.093	2.19 ± 0.073	2.33 ± 0.1	2.53 ± 0.049
SSAADITMESVHEWEVS [PRP8]	3.28 ± 0.062	3.32 ± 0.055	3.31 ± 0.048	3.29 ± 0.046
KARAKKTKKEKGPNEEE [RPN2]	3.45 ± 0.22	3.37 ± 0.15	3.43 ± 0.064	3.15 ± 0.18
HLNHYILLRYHHNDISN [YCG1]	1.23 ± 0.088	1.17 ± 0.068	1.19 ± 0.15	1.33 ± 0.063
